B1: HAdV-A18 CR1α (Fc fusion)
chain: LSPEEEPNCRPPLTNIKVVLSTTHVTLQCKFFSTQLTWTFNGKNVAEANLKYHINKENITLHSPIHLGYYRCFATPCVQAFFLAPVINPRPATTAQPEKITKLISTAIATTATKGTEEIIYFSNFTTNLLLNCSCSNSLISWFANNTFCKAFFQGTTLYSAKLELCNTSTPSNLTLLPPFVAGRYFCIGAGGHPCQRHWKLVFRPTLVLPTSADPTLSPTPNF
B2: CD45RO ECD (domain or fragment)
chain: QSPTPSPTDAYLNASETTTLSPSGSAVISTTTIATTPSKPTCDEKYANITVDYLYNKETKLFTAKLNVNENVECGNNTCTNNEVHNLTECKNASVSISHNSCTAPDKTLILDVPPGVEKFQLHDCTQVEKADTTICLKWKNIETFTCDTQNITYRFQCGNMIFDNKEIKLENLEPEHEYKCDSEILYNNHKFTNASKIIKTDFGSPGEPQIIFCRSEAAHQGVITWNPPQRSFHNFTLCYIKETEKDCLNLDKNLIKYDLQNLKPYTKYVLSLHAYIIAKVQRNGSAAMCHFTTKSAPPSQVWNMTVSMTSDNSMHVKCRPPRDRNGPHERYHLEVEAGNTLVRNESHKNCDFRVKDLQYSTDYTFKAYFHNGDYPGEPFILHHSTSYNSK
B3: HAdV-B55 CR1β (Fc fusion)
chain: QTVVSIPLGHNYTLIGPPITSEVIWTKLGSVDYFDIICNKTKPIIVTCNIQNLTLINVSKVYSGYYYGYDRYSSQYRNYLVRVTQSKTTKMPNMAEIRSDDNSLETFTSSTTPDEKNIPDS
B4: HAdV-D30 E3/49K (Fc fusion)
chain: ADPILVSVDWGKNLKLEGPKETPVEWWGGKNIQQLCVGNQTKHKELRHTCNMQNITLLSVNTSFNGDYFGFKNDNSGMKHYKVTVIPPKPTTRKPLPPPHYVNATMGQNLTLVGPANIPVTWLSEFGTLCEGKKILHEELNHTCNEQNLTLLFVNMTHNGPYFGFGKDNVDREQYEVSIISLFKVGAGQKKIDKGQRAEEKTKFNSGDLGRKQSRPKKKDIVDEVQVKSGNNQTLIGPPGKNVDWIKLSSGNDAVVTLCKGDTWIKHTCNGPNVTLINVTKPYEGSYYGSSDDGSSHYKVTVYDLYKSNKSKSKVKPYTTKGTTVNATNANGLKNALQQDGESENDQESKIPSAT
B5: HAdV-B1 CR1γ (Fc fusion)
chain: RSHLTVPVGSTCTLQGPQEGYVTWWRIYDNGGFARPCDQPGTKFSCNGRDLTIINITSNEQGFYYGTNYKNSLDYNIIVVPATTSAPRKSTFSSSSAKASTIPKTASAMLKLPKIALSNSTAAPNTIPKST

Key:
Assay in all cases: SPR
SLAMF5 ECD = molecular target: T1, SLAMF5 ECD (human, UniProt Q9UIB8 22-225)
T1 chain: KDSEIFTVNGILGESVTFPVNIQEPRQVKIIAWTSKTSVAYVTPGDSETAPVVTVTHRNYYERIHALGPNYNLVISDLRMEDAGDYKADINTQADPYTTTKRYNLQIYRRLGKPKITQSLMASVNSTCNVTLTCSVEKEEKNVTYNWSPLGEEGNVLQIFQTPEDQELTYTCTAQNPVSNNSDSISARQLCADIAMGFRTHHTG

SLAMF6 ECD = molecular target: T2, SLAMF6 ECD (human, UniProt Q96DU3 22-226)
T2 chain: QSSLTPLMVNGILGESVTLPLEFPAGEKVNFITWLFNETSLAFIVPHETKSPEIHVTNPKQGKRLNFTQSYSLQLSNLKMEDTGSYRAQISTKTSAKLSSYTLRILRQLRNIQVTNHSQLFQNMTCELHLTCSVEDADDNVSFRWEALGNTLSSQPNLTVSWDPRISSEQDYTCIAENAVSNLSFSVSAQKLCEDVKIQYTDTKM

SLAMF7 ECD = molecular target: T3, SLAMF7 ECD (human, UniProt Q9NQ25 23-226)
T3 chain: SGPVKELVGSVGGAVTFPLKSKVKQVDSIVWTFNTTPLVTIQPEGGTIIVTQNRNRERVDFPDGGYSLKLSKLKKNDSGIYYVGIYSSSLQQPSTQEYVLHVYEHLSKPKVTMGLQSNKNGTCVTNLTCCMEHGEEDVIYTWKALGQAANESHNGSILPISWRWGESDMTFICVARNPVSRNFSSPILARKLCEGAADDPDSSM

HAdV-D53 E3/49K = HAdV-D53 E3/49K (human adenovirus D53)
HAdV-D23 E3/49K = HAdV-D23 E3/49K (human adenovirus D23)
CD45RO ECD = molecular target: B2
SLAMF3 ECD = molecular target: T4, SLAMF3 ECD (human, UniProt Q9HBG7 48-454)
T4 chain: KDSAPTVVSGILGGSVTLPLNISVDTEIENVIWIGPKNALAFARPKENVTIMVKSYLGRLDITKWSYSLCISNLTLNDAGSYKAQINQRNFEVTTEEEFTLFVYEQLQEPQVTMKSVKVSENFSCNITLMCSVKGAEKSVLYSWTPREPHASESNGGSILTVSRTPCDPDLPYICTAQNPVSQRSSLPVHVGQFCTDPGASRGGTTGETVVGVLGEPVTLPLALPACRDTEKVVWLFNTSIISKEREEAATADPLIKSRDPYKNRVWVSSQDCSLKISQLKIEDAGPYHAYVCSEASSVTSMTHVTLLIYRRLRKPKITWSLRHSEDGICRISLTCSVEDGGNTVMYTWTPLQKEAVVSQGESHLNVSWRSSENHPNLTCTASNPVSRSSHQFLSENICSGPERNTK

SLAMF4 ECD = molecular target: T5, SLAMF4 ECD (human, UniProt Q9BZW8 22-229)
T5 chain: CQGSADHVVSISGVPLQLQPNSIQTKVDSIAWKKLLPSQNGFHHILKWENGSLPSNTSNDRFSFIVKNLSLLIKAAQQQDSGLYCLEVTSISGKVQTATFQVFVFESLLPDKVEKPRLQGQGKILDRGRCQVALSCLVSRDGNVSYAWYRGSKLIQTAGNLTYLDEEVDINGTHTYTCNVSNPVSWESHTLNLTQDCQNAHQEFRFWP

SLAMF8 ECD = SLAMF8 ECD (human, UniProt Q9P0V8 23-233)
SLAMF1 ECD = molecular target: T6, SLAMF1 ECD (human, UniProt Q13291 21-237)
T6 chain: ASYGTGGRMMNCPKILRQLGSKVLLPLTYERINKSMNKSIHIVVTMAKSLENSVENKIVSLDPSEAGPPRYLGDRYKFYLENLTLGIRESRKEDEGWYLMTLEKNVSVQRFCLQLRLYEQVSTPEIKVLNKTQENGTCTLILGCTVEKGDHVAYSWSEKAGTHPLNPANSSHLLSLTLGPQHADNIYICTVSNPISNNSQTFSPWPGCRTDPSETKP

Sequence of SLAMF8 ECD (Q9P0V8 23-233): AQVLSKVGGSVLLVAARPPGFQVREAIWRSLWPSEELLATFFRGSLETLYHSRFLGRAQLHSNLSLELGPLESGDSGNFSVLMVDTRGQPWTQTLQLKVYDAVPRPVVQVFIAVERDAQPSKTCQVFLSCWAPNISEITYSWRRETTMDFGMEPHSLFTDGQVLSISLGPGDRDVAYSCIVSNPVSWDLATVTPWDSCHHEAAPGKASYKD

B1
Kd (SLAMF5 ECD): 2.1 nM | Kd (SLAMF6 ECD): 631 nM | Kd (SLAMF7 ECD): 137 nM

B2
Kd (HAdV-D53 E3/49K): 0.21 nM | Kd (HAdV-D23 E3/49K): 0.18 nM

B3
Kd (SLAMF6 ECD): 13 nM

B4
Kd (CD45RO ECD): 0.19 nM | Kd (SLAMF3 ECD): 18 nM

B5
Kd (SLAMF4 ECD): 280 nM | Kd (SLAMF8 ECD): 60 nM | Kd (SLAMF1 ECD): 215 nM | Kd (SLAMF3 ECD): 86 nM | Kd (SLAMF7 ECD): 1.5 nM

From publication PMC4858740 (2016)
